Measured values published in the supplement of paper PMC9170038.

Test system: MS2 coat protein
Assay: apparent KD of MS2 coat protein; designed switch direction (-1 OFF switch, 1 ON switch): -1; higher = weaker reporter binding
Procedure, shortened: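 Transcription of designed RNA switches on Illumina chips was done by stalled E. coli RNA polymerase. SNAP-549-labelled MS2 coat protein was then titrated in doubling steps from 0.7 or 1.5 nM to 3 µM, with steps of 0.8–1.5 h at the lowest and 10–20 min at the highest concentration. The per-design median over clusters of curve-fitted normalised fluorescence is reported as apparent KD.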

[1] = input ligand: microRNA oligo, concentration not stated
[2] = Eterna round: R95, input ligand: FMN 200 uM
[3] = Eterna round: R95, input ligand: microRNA oligo, concentration not stated
[4] = Eterna round: R95, input ligand: none

| Sequence | apparent KD of MS2 coat protein (input ligand: FMN 200 uM) [nM] | apparent KD of MS2 coat protein [1] [nM] | apparent KD of MS2 coat protein (input ligand: none) [nM] | apparent KD of MS2 coat protein [2] [nM] | apparent KD of MS2 coat protein [3] [nM] | apparent KD of MS2 coat protein [4] [nM] |
| --- | --- | --- | --- | --- | --- | --- |
| UUAUUAAUUAAUAUUAUAAGAUCACAUGAGGAUCACCCAUGUCAGGAUAUCAGCUCGUGUAGAGCUGAGAAGGGACAAAUAAUA [ExNG3/15-B3] (Eterna round: R96, puzzle: Exclusion NG 3) | 576 | 451 | 306 | – | – | – |
| AUAAUGUCAGGAUAUCGAGACUACUGCUUCGGCAGUAGUCUCGAGAAGGGACAUGAGGAUCACCCAUGUGAUCA [E4/1-A1] (Eterna round: R97, puzzle: Exclusion 4) | 41.8 | – | 40.8 | – | – | – |
| UAGCAGAGAGGAUAUACAUUCAUCACCCGCGCAACAAGCGCACAUGAGGAUCACCCAUGUAGAAGGCUCGUGCC [EX2 C.20] (Eterna round: R97, puzzle: Exclusion 2) | 53.6 | – | 31.7 | – | – | – |
| GAGUGACAUGAGGAUCACCCAUGUGAGGAUAUGCGACGGACCAAAUUAACAAUAGAAGGCAGAAGGCGCAUAAA [Exclusion 1 V10] (puzzle: Exclusion 1) | – | – | – | 26.9 | 33.1 | 31.1 |
| AAGAUACAUGAGGAUCACCCAUGUGAGGAUAUCAGCACGACCGUGAGGUCGAUAAGAAUGAGAAGGCACAAUGG [JL-ex1-4.51] (Eterna round: R97, puzzle: Exclusion 1) | 103 | – | 279 | – | – | – |
| GAUCCACAUGAGGAUCACCCAUGUUAGGAUAUUCAGCCUUGGUCACGGGAGUCAGGGCGGAGAAGGAACCCUUU [Eternabot (L2) Solution 16] (Eterna round: R97, puzzle: Exclusion 1) | 14.4 | – | 13 | – | – | – |
| AGCCACAGAGGAUAUACAUACAUCCAGUAGUUAAGAAUAUUACAUGAGGAUCACCCAUGUAGAAGGCUGUGGCA [Omei Ex2 BD B7] (Eterna round: R97, puzzle: Exclusion 2) | 352 | – | 35.4 | – | – | – |
| AAACUGCAUGUGAGGAUAUGCACCGGCUAAACCGGGCAGAAGGCACAUGAGGAUCACCCAUGUCAUCCUAUUGC [Esleisus] (puzzle: Brourd's mod of Exclusion 4) | – | – | – | – | 9.01 | – |
| GCAGUUCGAGUUAGGAUAUGAUGUUAAUUCGGAUAUCAGAAGGAACUUGAGGAUCACCCAAGUAUAGAUGUUGU [JR_BMEx4_Sub061] (Eterna round: R97, puzzle: Brourd's mod of Exclusion 4) | 31.3 | – | 19.8 | – | – | – |
| UAUUCACAUGAGGAUCACCCAUGUCAGGAUAUGCUCGAUAUAUGGAAACAUAUAUCGAGCAGAAGGGACUAGCG [Jieuxxlusion 8 - Jieux - Exclusion 1] (Eterna round: R97, puzzle: Exclusion 1) | 98.7 | – | 41.2 | – | – | – |
| AAAACGGCAGGAUAUCGGAACAAUGACAUGAGGAUCACCCAUGUGAUCGUUUCACUUGGCCGAGAAGGGCCAAAAU [Xeinbelele] (puzzle: Exclusion 5) | – | – | – | 54.6 | 18.6 | 17.4 |
| UUGGUUAUCUAUGGGAGUAACAUGAGGAUCACCCAUGUAUGUCUUGUUUUUUGUUCGUCAUAGGCCUUUUGUUUGGA [JR_SV3TOV1_Sub024] (puzzle: Sensor v3, turn-off variant 1) | – | – | – | 28.6 | 35 | 29.8 |
| UCUCGCGGGCAAGGAUAUCCCACGCUGUUCUGGCCCGUGUCUGUUACAUGAGGAUCACCCAUGUGGGAGAAGGUGCACCAGGGC [Design 43] (Eterna round: R96, puzzle: Exclusion NG 2) | 30.9 | 16.8 | 29.4 | – | – | – |
| GCCAGAGCAGGAUAUCUAAUAUCUCACAUGAGGAUCACCCAUGUCUAGCGAAAGCUAGAGGGAGAAGGGCUCUGGC [Mat - Exclusion 5 - Eli mod - D93] (puzzle: Exclusion 5) | – | – | – | 28.1 | 29.4 | 41.6 |
| AAUUGGUUAGGAUAUCGGGAAUAUCACAUGAGGAUCACCCAUGUGACCUUUAUGGUGUCAUGAGAAGGGACGCGGA [Eternabot (L1) Solution 11] (Eterna round: R97, puzzle: Exclusion 5) | 27.9 | – | 24.5 | – | – | – |
| AAUAACAGAGGAUAUACUGUUUUAUGUGUUUAUUGUUUUAAACAUGAGGAUCACCCAUGUAGAAGGCUGAAUAA [JMF 17] (puzzle: Exclusion 2) | – | – | – | – | 23.4 | – |

| Sequence | apparent KD of MS2 coat protein (input ligand: FMN 200 uM) [nM] | apparent KD of MS2 coat protein [1] [nM] | apparent KD of MS2 coat protein (input ligand: none) [nM] | apparent KD of MS2 coat protein [2] [nM] | apparent KD of MS2 coat protein [3] [nM] | apparent KD of MS2 coat protein [4] [nM] |
| --- | --- | --- | --- | --- | --- | --- |
| CCUAGUUGGUAAGGAUAUCCUACACUAUUCUGACCCGUGCAAGCUACAUGAGGAUCACCCAUGUGGGAGAAGGUGCGUCAACGU [Design 10] (Eterna round: R96, puzzle: Exclusion NG 2) | 21.3 | 18.2 | 23.8 | – | – | – |
| AGUACUAACACGACAGUGUUAGUACAAUAAGCUUGUGAAACAUGAGGAUCACCCAUGUCCUCAUAAGCUCGUCUUAU [salish99_TOv2_r3_031] (Eterna round: R96, puzzle: Sensor v3, turn-off variant 2) | 15.4 | 431 | 17.2 | – | – | – |
| AAGAAACAUGAGGAUCACCCAUGUGAGGAUAUGAUGAAGAAAAGAAAAGAAAGAAGAAUCAGAAGGCACAAAGG [salish99-ex1_r3_043] (puzzle: Exclusion 1) | – | – | – | 83.6 | 48.2 | 66.5 |
| CUGUGCACGCUGCGGUCCUACAUGAGGAUCACCCAUGUGGUCUGGUGGCGUGGGUCACCGGACUUGGCUCGUCUUGU [salish99_S_TOV1_R5_064] (Eterna round: R97, puzzle: Sensor, turn-off variant 1) | 35.7 | – | 42.3 | – | – | – |
| AAAUAGUGAGGAUAUUAGUUGUACGUCAAUAGACGUAUAAGUGAGAAGGCACAUGAGGAUCACCCAUGUUCCAG [Omei Ex4 Mod of Mat's R95 mod of Omei v9] (Eterna round: R97, puzzle: Exclusion 4) | 48.4 | – | 22.2 | – | – | – |
| UUGGUUGUGGUAGGAUAUCCGUUGGAAACCGUCGGAGAAGGACCACAGUCACUGGGUCUUUGUCUGGUGGACUGGAAUCACCAU [pwkr exNG1 F6.21] (Eterna round: R96, puzzle: Exclusion NG 1) | 295 | 157 | 224 | – | – | – |
| UUCAGGCGAGGAUAUCCAUGAAGUAACAUGAGGAUCACCCAUGUUCGCUGUUACUCCGAAGGAGAAGGUGCUCUGG [Eternabot (L2) Solution 25] (Eterna round: R97, puzzle: Exclusion 5) | 196 | – | 100 | – | – | – |
| UUUUACAUAGGAUAUAGUUUGUUGUACAUGAGGAUCACCCAUGUUUUUGGUUGUGCUUUUCUAGAAGGAUGUUUCU [JR_E5_Sub015] (puzzle: Exclusion 5) | – | – | – | – | 43.8 | – |
| AAUAACAAGCAGAUCCUAAACAUGAGGAUCACCCAUGUGUUCGUCUUGUAAAGUACUAUCACGAAAGUGAUAGUACA (Eterna round: R97, puzzle: Sensor, turn-off variant 1) | 68.7 | – | 66.2 | – | – | – |
| UAAAGUAUAUAGGAUAUCUAGCUGGAAACAGCUAGAGAAGGAUGUACAUGAGGAUCACCCAUGUAAAUCGUGAA [Ex6/13-A1] (Eterna round: R97, puzzle: Exclusion 6) | 16.2 | – | 13 | – | – | – |
| CGCGACUCAGGAUAUACAUGAGGAUCACCCAUGUGGAACGACUGGGUCGAUAAAAGGUGUAGAAGGGAGGAAAA [Invebies] (puzzle: Exclusion 3) | – | – | – | 15.4 | 12.6 | 15.4 |
| ACAUGAGGAUCACCCAUGUGGACGUAAAGGCUCAUGUAGAGUGAGGAUAUGUGAGACGAACGAGAACAGAAGGCACAAGACAGG [Deportation 6 - Jieux - Exclusion NG 3] (Eterna round: R96, puzzle: Exclusion NG 3) | 15.7 | 16.7 | 19.9 | – | – | – |
| UAAAAUCUAGGAUAUACAUGAGGAUCACCCAUGUUGCUCCCAGCUCGUGACCUCCAAUGUAGAAGGAGAACGAU [EX3 A.15] (Eterna round: R97, puzzle: Exclusion 3) | 19.8 | – | 20.1 | – | – | – |
| ACAGAGUCAGGAUAUCGCCGUGGCAGUCUCAACCAGCGGAACGAGAAGGGACAUGAGGAUCACCCAUGUCUGUU [Eternabot (Original) Solution 36] (Eterna round: R97, puzzle: Exclusion 4) | 20.7 | – | 18.6 | – | – | – |
| GGGAGGGAUGCAGGAUAUGCGAGGGAGGGAGGAGUAGAAGGGCAUGAGGAUCACCCAUGUGACAUGAGGAUCACCCAUGUGGGA [Success - 29% A] (Eterna round: R96, puzzle: Exclusion NG 1) | 78 | 80.2 | 82 | – | – | – |
